Source: patent publication US20210221885A1

Target: Eu3+ cryptate labeled TIM3 (Cisbio kit, cat# 63ADK000CTLPEB) (human) (UniProt Q8TDQ0)
Assay: HTRF blocking assay (Cisbio kit), antibody added to a mixture of Tim3-EuK and Tag-Gal9; blocked ligand galectin-9; the unit is that of the concentration axis

Chain of Eu3+ cryptate labeled TIM3 (Cisbio kit, cat# 63ADK000CTLPEB) (human) (Q8TDQ0 22-202 limits assumed): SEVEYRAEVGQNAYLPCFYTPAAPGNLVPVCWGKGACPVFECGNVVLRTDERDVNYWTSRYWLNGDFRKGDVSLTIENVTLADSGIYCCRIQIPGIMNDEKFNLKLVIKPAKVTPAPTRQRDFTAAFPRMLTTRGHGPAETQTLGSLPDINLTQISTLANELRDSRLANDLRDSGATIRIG

“F38-2E2 (ebioscience, cat#16-3109-85) (antibody)” gave an IC50 of 5.74 nM.
